Measured values taken from patent publication US20150274807A1 (SUZHOU ALPHAMAB, published 2015).

B1: Fc protein K392D/K409D/D399K (other)
chain: GSGGGDKTHTCPPCPAPELLGGPSVFLFPPKPKDTLMISRTPEVTCVVVDVSHENPEVKFNWYVDGVEVHNAKTKPREEQYNSTYRVVSVLTVLHQDWLNGKEYKCKVSNKALPAPIEKTISKAKGQPREPQVYTLPPSREEMTKNQVSLTCLVKGFYPSDIAVEWESNGQPENNYDTTPPVLKSDGSFFLYSDLTVDKSRWQQGNVFSCSVMHEALHNHYTQKSLSLSPGK
notes: Monomer chain; EU numbering is K392D/K409D/D399K; also called Fc-mix1; Fc of mutation combinations 1, 5 and 6

Legend:
[1] = target: B1; assay: co-transfection 1:1 in 293H, protein A pull-down, non-reducing SDS-PAGE densitometry
Method: (§1) The expression vectors harbor 8 mutation combinations in step 3 were separately transfected with PEI into suspension adapted 293H cells (ATCC CRL-1573), the co-transfection ratio of plasmids pcDNA3.1-zeo-ScFv-Fc to pcMVβ-SP-Fc was 1:1, and after 3-4 days, cell culture supernatant was collected. Immuno precipitation was performed with protein A agarose resin, and the content of the homodimer proteins or antibodies (ScFv-Fc/ScFv-Fc and Fc/Fc) and the heterodimer protein or antibody (ScFv-Fc/Fc) was detected by SDS-PAGE under non-reducing conditions. Gel-Pro professional image analysis software (Media Cybernetics company) was used for analyzing the proportion of the homodimer proteins or antibodies (ScFv-Fc/ScFv-Fc and Fc/Fc) and the heterodimer protein or antibody (ScFv-Fc/Fc). […] In addition, when E357K/K370E/K392D/K409D/D399K (mutation combination 4) was introduced on Fc, the stability should be further investigated because of the appearance of Fc monomers (about 6%).

[2] = target: the molecule itself; assay: co-transfection 1:1 in 293H, protein A pull-down, non-reducing SDS-PAGE densitometry; co-expressed with Fc K392D/K409D/D399K
Method: as §1

[3] = target: the molecule itself; assay: co-transfection 1:1 in 293H, protein A pull-down, non-reducing SDS-PAGE densitometry; co-expressed with ScFv-Fc WT
Method: as §1

| proportion of ScFv-Fc/Fc heterodimer on SDS-PAGE [1] [%] | Binder | proportion of ScFv-Fc homodimer on SDS-PAGE [2] [%] | proportion of Fc homodimer on SDS-PAGE [3] [%] |
| --- | --- | --- | --- |
| 8.4 | ScFv-Fc protein E356K/K439E (Fc fusion, Monomer chain; also called scFv-Fcmix1; ScFv-Fc of mutation combination 6) EVQLLESGGGVVQPGRSLRLSCIASGFTFSSYPMTWVRQAPGKGLEWVASISYDGSYKYKADSMKGRLTISRDNSKNTLYLEMNSLTAEDTAVYYCARTAFFNAYDFWGQGTLVTVSSASTKGPSVGGGGSGGGGSEIVMTQSPATLSVSPGERATLSCRASQSVRSNLAWYQQKPGQAPRLLIYAASTRATGIPARFSGSGSGTEFTLTISSLQSEDFAVYYCQQYNEWFRTSGQGTKVEIKRDKTHTCPPCPAPELLGGPSVFLFPPKPKDTLMISRTPEVTCVVVDVSHENPEVKFNWYVDGVEVHNAKTKPREEQYNSTYRVVSVLTVLHQDWLNGKEYKCKVSNKALPAPIEKTISKAKGQPREPQVYTLPPSRKEMTKNQVSLTCLVKGFYPSDIAVEWESNGQPENNYKTTPPVLDSDGSFFLYSKLTVDKSRWQQGNVFSCSVMHEALHNHYTQESLSLSPGK | 31.2 | – |
| 5.9 | ScFv-Fc protein E357K/K370E (Fc fusion, Monomer chain; also called ScFv-Fc of mutation combination 5) EVQLLESGGGVVQPGRSLRLSCIASGFTFSSYPMTWVRQAPGKGLEWVASISYDGSYKYKADSMKGRLTISRDNSKNTLYLEMNSLTAEDTAVYYCARTAFFNAYDFWGQGTLVTVSSASTKGPSVGGGGSGGGGSEIVMTQSPATLSVSPGERATLSCRASQSVRSNLAWYQQKPGQAPRLLIYAASTRATGIPARFSGSGSGTEFTLTISSLQSEDFAVYYCQQYNEWFRTSGQGTKVEIKRDKTHTCPPCPAPELLGGPSVFLFPPKPKDTLMISRTPEVTCVVVDVSHENPEVKFNWYVDGVEVHNAKTKPREEQYNSTYRVVSVLTVLHQDWLNGKEYKCKVSNKALPAPIEKTISKAKGQPREPQVYTLPPSREKMTKNQVSLTCLVEGFYPSDIAVEWESNGQPENNYKTTPPVLDSDGSFFLYSKLTVDKSRWQQGNVFSCSVMHEALHNHYTQKSLSLSPGK | 41.5 | – |
| – | Fc protein E357K/K370E (other, Monomer chain; also called Fc of mutation combination 3) GSGGGDKTHTCPPCPAPELLGGPSVFLFPPKPKDTLMISRTPEVTCVVVDVSHENPEVKFNWYVDGVEVHNAKTKPREEQYNSTYRVVSVLTVLHQDWLNGKEYKCKVSNKALPAPIEKTISKAKGQPREPQVYTLPPSREKMTKNQVSLTCLVEGFYPSDIAVEWESNGQPENNYKTTPPVLDSDGSFFLYSKLTVDKSRWQQGNVFSCSVMHEALHNHYTQKSLSLSPGK | – | 47.5 |
| – | Fc protein K392D/D399K (other, Monomer chain; also called Fc of mutation combination 7) GSGGGDKTHTCPPCPAPELLGGPSVFLFPPKPKDTLMISRTPEVTCVVVDVSHENPEVKFNWYVDGVEVHNAKTKPREEQYNSTYRVVSVLTVLHQDWLNGKEYKCKVSNKALPAPIEKTISKAKGQPREPQVYTLPPSREEMTKNQVSLTCLVKGFYPSDIAVEWESNGQPENNYDTTPPVLKSDGSFFLYSKLTVDKSRWQQGNVFSCSVMHEALHNHYTQKSLSLSPGK | – | 44.7 |
| – | Fc protein E356K/K439E (other, Monomer chain; also called Fc of mutation combination 2) GSGGGDKTHTCPPCPAPELLGGPSVFLFPPKPKDTLMISRTPEVTCVVVDVSHENPEVKFNWYVDGVEVHNAKTKPREEQYNSTYRVVSVLTVLHQDWLNGKEYKCKVSNKALPAPIEKTISKAKGQPREPQVYTLPPSRKEMTKNQVSLTCLVKGFYPSDIAVEWESNGQPENNYKTTPPVLDSDGSFFLYSKLTVDKSRWQQGNVFSCSVMHEALHNHYTQESLSLSPGK | – | 41.1 |
| – | Fc protein D399K/K409D (other, Monomer chain; also called Fc of mutation combination 8) GSGGGDKTHTCPPCPAPELLGGPSVFLFPPKPKDTLMISRTPEVTCVVVDVSHENPEVKFNWYVDGVEVHNAKTKPREEQYNSTYRVVSVLTVLHQDWLNGKEYKCKVSNKALPAPIEKTISKAKGQPREPQVYTLPPSREEMTKNQVSLTCLVKGFYPSDIAVEWESNGQPENNYKTTPPVLKSDGSFFLYSDLTVDKSRWQQGNVFSCSVMHEALHNHYTQKSLSLSPGK | – | 43.4 |
| – | B1 | – | 51.3 |
| – | Fc protein E357K/K370E/K392D/K409D/D399K (other, Monomer chain; also called Fc-mix13; Fc of mutation combination 4) GSGGGDKTHTCPPCPAPELLGGPSVFLFPPKPKDTLMISRTPEVTCVVVDVSHENPEVKFNWYVDGVEVHNAKTKPREEQYNSTYRVVSVLTVLHQDWLNGKEYKCKVSNKALPAPIEKTISKAKGQPREPQVYTLPPSREKMTKNQVSLTCLVEGFYPSDIAVEWESNGQPENNYDTTPPVLKSDGSFFLYSDLTVDKSRWQQGNVFSCSVMHEALHNHYTQKSLSLSPGK | – | 28.7 |
